This note sets out measurements from US20180346912, “METHOD FOR STABILIZING DNA APTAMERS” (TAGCYX BIOTECHNOLOGIES, published 2018).

The series has as its target vWF A1 domain (UniProt P04275 P04275:1277-1453). Nature of the series: competition; EMSA competition vs 32P-ARC1172(wt) (=1.00), PBS, 0.1 mg/mL BSA, 37 C. The following applies: tags: U-Protein Express BV. As for the experimental part:
In order to examine each prepared nucleic acid for its binding to vWF A1 domain, competition with ARC1172 reported as an aptamer binding to vWF A1 domain was tested using each variant nucleic acid. In 20 μL of a reaction solution (1× PBS and 0.1 mg/mL BSA). ARC1172 labeled with [γ-³²P]ATP (final concentration: 100 nM), each unlabeled nucleic acid (ARC1172(wt), ARC1172(wt)-iT, ARC1172-F, ARC 1172-F-iT, and ARC1172-G) (final concentration: 100 nM), and vWF A1 domain (100 nM, U-Protein Express BV) were mixed and incubated at 37° C. for 30 minutes. Then, 25% glycerol containing bromophenol blue was added thereto at a final glycerol concentration of 5%. Labeled ARC1172(wt) bound to vWF A1 domain was separated from labeled ARC1172 in a free form by 10% non-denaturing polyacrylamide gel electrophoresis. The gel was dried and visualized using Bio Image Analyzer FLA-7000, and the radioactivity was measured. The gel shift rate, the inhibition rate, and the relative binding rate were calculated in accordance with Example 2.

Sequence of vWF A1 domain (P04275 1277-1453, one chain of several): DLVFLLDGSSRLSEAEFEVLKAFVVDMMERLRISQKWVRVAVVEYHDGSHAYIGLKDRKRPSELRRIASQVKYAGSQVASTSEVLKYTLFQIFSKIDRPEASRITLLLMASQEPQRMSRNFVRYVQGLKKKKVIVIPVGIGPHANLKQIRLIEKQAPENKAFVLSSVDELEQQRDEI

Under “internal and 3' mini-hairpins”, GGCGTGCAGTGCCGAAGGCCGTGCGGTGCCTCCGTCACGCCCGCGAAGCG (ssDNA) [ARC1172-G] gave a binding signal of 1.61.
As for GGCGTGCAGTGCCGAAGGCCGTGCGGTGCCTCCGTCACGCC (ssDNA, 3' idT) [ARC1172-F-iT], the binding signal (internal mini-hairpin) was found to be 1.43.
GGCGTGCAGTGCCTTCGGCCGTGCGGTGCCTCCGTCACGCC (ssDNA, 3' idT) [ARC1172(wt)-iT]: the binding signal came to 1.12.
Molecule GGCGTGCAGTGCCGAAGGCCGTGCGGTGCCTCCGTCACGCC (ssDNA) [ARC1172-F] came in with a binding signal (internal mini-hairpin) of 1.37.
